Experimental data taken from US20200157212A1 (Pfizer, published 2020).

How the values were obtained:
[1] = biological target: T1, Human ROBO2 overexpressed on HEK293 cells (human, UniProt Q9HCK4 22-1378); test: flow cytometry, HEK293 cells overexpressing human ROBO2
T1 construct: also called ROBO2 cells; native ROBO2
T1 sequence: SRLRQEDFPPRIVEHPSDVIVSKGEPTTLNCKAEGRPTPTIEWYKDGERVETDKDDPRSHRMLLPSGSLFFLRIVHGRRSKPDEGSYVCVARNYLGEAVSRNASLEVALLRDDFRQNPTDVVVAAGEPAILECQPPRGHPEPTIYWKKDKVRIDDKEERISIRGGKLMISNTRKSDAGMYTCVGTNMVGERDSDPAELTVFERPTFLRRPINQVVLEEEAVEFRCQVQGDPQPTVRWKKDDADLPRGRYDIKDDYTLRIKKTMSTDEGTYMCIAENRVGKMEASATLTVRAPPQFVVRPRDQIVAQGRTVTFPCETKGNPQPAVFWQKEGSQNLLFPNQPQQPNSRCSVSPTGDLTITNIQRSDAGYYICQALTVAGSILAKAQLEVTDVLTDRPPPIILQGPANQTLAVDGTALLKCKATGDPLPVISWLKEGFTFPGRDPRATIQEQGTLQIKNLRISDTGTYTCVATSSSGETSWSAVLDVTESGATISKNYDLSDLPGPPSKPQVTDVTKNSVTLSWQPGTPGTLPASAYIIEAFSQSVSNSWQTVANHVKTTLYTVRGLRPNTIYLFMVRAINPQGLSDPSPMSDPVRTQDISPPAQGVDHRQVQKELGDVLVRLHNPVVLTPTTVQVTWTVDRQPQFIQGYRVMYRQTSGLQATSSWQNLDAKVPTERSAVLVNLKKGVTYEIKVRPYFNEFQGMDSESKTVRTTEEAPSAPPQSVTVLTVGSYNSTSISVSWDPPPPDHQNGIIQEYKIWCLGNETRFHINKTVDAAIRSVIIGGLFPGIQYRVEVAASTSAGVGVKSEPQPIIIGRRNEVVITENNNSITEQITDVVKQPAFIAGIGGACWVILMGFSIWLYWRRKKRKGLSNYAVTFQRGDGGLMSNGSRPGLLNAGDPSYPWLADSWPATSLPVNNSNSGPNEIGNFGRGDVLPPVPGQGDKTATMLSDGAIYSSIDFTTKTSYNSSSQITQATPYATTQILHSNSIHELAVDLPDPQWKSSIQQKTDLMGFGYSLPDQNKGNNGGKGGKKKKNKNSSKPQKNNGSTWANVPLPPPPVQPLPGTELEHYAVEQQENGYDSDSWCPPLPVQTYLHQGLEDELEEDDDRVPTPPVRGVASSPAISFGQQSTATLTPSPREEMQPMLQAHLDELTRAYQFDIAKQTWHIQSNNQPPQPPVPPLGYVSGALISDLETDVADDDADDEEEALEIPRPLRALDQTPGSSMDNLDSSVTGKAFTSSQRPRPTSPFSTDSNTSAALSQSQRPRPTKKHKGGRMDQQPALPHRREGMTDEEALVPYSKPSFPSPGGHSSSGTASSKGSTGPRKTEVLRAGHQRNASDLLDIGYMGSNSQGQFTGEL
Procedure: (§1) Binding of the antibodies was detected using a secondary fluorochrome conjugated anti-human IgG F(ab′)₂ antibody and samples were analyzed on a Fortessa cytometer (BD Biosciences). The fold ROBO2 selectivity was calculated as the geometric mean fluorescence intensity (Geo MFI) with ROBO2 cells/Geo MFI with ROBO1 cells. A fold change higher than 3 was considered to be ROBO2 specific (Table 2, Fold Selectivity). Some affinity matured clones had increased ROBO1 reactivity, for example Abcs 55, CTI-R2-10 and CTIR2-13.
(§2) Based upon several criteria, Abcs25 and Abcs35 were selected for further characterization. Using flow cytometry, improvement in the binding EC₅₀ to human ROBO2 relative to the parental 93H2 was evaluated. Starting at 6.7 nM, 11-point, 3-fold dilution series were made for each antibody and used to stain HEK293 overexpressing human ROBO2 as described above for the ROBO2 fold selectivity (Example 2). […] In addition to measuring improved binding to human ROBO2, it was important to ensure that high affinity binding to both cynomolgus monkey ROBO2 and rat ROBO2 was maintained. Using HEK293 cells overexpressing either cynomolgus monkey ROBO2 or rat ROBO2, the relative dose-dependent binding of 93H2, Abcs25 and Abcs35 was evaluated as described above. High affinity binding to both cynomolgus monkey and rat ROBO2 was maintained in Abcs25 and Abcs35 (Table 4). […] Briefly, Abcs35 was immobilized to 300 resonance units (RU) on a CM5 chip. Association of ROBO2 Ig1-Ig2-His (ROBO2) was measured over 5 minutes and dissociation was followed for a period of 10 minutes.

[2] = biological target: T2, Human ROBO1 RSK mutant overexpressed on HEK293 cells (human, UniProt Q9Y6N7 26-1651); test: flow cytometry, HEK293 ROBO1-RSK cells
T2 construct: K137R and R139K already in the entry; also called ROBO1-RSK cells
T2 sequence (Q9Y6N7 other isoform, or with tags, fused parts or gaps mutant limits assumed): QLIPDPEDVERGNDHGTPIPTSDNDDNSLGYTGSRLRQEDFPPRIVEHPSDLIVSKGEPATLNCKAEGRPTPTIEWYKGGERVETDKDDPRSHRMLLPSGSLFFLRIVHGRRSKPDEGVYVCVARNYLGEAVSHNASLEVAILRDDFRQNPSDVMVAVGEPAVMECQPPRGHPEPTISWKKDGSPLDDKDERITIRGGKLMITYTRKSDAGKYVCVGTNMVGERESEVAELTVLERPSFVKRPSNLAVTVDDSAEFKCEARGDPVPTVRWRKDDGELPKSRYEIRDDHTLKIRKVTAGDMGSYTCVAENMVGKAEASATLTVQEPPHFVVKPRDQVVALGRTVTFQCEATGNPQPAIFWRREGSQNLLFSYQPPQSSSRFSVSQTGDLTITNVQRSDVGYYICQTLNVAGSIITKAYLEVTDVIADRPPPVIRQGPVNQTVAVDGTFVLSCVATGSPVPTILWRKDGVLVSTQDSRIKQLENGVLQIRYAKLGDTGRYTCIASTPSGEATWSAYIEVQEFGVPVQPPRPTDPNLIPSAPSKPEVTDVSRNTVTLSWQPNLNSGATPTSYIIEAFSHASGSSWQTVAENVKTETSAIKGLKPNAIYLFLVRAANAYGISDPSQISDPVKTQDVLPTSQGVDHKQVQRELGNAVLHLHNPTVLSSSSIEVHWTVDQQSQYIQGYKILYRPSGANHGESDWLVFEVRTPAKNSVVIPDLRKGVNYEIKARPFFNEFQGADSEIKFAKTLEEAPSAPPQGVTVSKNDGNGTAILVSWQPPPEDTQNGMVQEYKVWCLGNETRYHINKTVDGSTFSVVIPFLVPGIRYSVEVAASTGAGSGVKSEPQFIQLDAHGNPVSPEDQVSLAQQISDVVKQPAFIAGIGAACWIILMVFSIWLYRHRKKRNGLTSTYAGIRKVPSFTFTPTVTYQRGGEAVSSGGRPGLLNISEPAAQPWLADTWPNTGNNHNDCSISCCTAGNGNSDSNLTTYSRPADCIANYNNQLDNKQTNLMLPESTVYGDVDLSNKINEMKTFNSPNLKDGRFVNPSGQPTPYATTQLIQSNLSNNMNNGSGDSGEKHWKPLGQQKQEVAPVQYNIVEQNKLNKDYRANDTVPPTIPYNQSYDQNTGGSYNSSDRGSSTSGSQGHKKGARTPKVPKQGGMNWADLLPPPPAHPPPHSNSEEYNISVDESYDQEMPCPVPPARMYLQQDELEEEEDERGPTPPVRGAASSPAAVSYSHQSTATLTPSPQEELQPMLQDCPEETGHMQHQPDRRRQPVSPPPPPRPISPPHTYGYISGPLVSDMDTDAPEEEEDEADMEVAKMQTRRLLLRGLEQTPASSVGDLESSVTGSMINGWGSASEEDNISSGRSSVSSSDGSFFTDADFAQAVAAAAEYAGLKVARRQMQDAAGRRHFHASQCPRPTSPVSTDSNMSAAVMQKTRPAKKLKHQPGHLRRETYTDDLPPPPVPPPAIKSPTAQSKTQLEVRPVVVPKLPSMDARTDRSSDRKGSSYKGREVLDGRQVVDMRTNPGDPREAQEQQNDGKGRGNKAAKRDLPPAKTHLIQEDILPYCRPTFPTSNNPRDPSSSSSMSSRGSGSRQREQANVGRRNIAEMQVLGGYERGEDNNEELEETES
Procedure: as §1, §2
RSK specificity for Abcs35, along with 93H2 and Abcs25, also was confirmed in a cell-based binding assay using flow cytometry. HEK293 cells overexpressing ROBO2 containing the KSR sequence from ROBO1 (ROBO2-KSR) or ROBO1 containing the RSK sequence from ROBO2 (ROBO1-RSK) were generated. As described above in Example 3, dose-dependent binding was evaluated.

[3] = biological target: T3, Terbium (Tb) labeled-SNAP tagged ROBO2 expressed on HEK293 cells (Homo sapiens (Human), UniProt Q9HCK4 22-1378, terbium label on the SNAP tag); test: HTRF competition, competitor d2-SLIT2-N, ROBO2 HEK293 cells
T3 construct: also called Tb-labeled ROBO2 cells; ROBO2 expressing cells; not shown: SNAP tag
T3 sequence: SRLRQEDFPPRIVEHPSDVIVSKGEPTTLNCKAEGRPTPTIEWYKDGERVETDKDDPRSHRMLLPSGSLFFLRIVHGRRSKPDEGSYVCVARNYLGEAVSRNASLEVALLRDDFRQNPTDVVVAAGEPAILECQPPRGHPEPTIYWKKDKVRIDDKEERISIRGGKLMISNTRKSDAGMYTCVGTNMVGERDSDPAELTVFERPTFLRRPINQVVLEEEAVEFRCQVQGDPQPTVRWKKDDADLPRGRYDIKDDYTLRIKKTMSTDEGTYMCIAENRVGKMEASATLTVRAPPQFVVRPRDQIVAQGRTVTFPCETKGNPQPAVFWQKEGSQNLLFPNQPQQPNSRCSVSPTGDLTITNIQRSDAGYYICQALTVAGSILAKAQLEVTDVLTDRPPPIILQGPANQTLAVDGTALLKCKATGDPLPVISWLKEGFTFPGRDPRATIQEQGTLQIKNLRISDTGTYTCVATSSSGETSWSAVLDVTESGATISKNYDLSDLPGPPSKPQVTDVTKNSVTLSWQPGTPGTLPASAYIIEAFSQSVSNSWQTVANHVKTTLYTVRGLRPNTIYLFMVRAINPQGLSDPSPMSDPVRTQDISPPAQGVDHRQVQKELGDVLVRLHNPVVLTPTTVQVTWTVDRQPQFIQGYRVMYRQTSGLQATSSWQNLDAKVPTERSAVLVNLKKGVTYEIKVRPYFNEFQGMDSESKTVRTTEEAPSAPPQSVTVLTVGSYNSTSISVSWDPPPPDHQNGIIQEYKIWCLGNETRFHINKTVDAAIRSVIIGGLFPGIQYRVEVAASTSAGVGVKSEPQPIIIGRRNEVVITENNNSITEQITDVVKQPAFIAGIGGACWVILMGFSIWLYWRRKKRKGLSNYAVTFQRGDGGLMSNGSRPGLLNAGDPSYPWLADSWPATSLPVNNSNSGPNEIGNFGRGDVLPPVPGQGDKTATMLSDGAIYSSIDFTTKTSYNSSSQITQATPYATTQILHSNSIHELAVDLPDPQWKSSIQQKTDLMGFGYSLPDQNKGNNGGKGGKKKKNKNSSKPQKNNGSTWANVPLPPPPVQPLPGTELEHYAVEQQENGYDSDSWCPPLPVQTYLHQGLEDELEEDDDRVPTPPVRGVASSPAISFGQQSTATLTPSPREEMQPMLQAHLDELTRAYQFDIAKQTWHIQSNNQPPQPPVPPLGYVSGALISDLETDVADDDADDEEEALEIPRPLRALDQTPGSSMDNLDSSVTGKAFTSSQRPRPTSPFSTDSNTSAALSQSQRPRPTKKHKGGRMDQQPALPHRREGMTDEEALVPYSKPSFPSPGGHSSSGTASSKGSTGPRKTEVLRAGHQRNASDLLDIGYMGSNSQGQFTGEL
Summary of the method: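 HEK293 cells expressing Tb-labeled SNAP-ROBO2 were incubated 1 hour with 5 nM d2-SLIT2-N plus antibody, read as the 665/620 nm HTRF ratio. Controls were no antibody (maximal) and cells alone (minimal). Screening used 1 nM antibody; IC₅₀ came from 11-point, 5-fold dilutions starting at 1500 nM.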

Binder	EC50 [1] [nM]	EC50 [2] [nM]	IC50 [3] [nM]
93H2 (antibody, human IgG1, kappa, V domains shown, also called parental 93H2; 93H2 mAb) VH: EVQLVQSGAEVKKPGASVKVSCKASGYTFTGYYMHWVRQAPGQGLEWMGWINPNSGATNFPQKFQGRVTMTRDTSITTAYMDLSRLRSDDTAVYYCARESGDDAFDIWGQGTMVTVSS VL: not shown	0.133	0.37	4.22
Abcs55 (antibody, human IgG1, kappa, V domains shown, chain-shuffled IgG) VH: EVQLVQSGAEVKKPGASVKVSCKASGYTFTGYYMHWVRQAPGQGLEWMGWINPKDGDTEFPQKFQGRVTMTRDTSITTAYMDLSRLRSDDTAVYYCARESGDDAFDIWGQGTMVTVSS VL: DIVMTQSPSSLSASVGDRVTITCRASQSISSYLNWYQQKPGKAPKLLIYAASSLQYGVPSRFSGSGSGTDFTLTISSLQPEDFATYYCQQSYSTSFGGGTKVEIKR	–	–	0.057
CTIR2-16 (antibody, human IgG1, kappa, V domains shown, CDR-shuffled IgG) VH: EVQLVQSGAEVKKPGASVKVSCKASGYTFRGYAMHWVRQAPGQGLEWMGWIDPRTGLTKFPQKFQGRVTMTRDTSITTAYMDLSRLRSDDTAVYYCARESGDDAFDIWGQGTMVTVSS VL: DIVMTQSPSSLSASVGDRVTITCRASQKISSYLNWYQQKPGKAPKLLIYAASSLQYGVPSRFSGSGSGTDFTLTISSLQPEDFATYYCQQSVGLFFGGGTKVEIKR	–	–	0.056
CTIR2-14 (antibody, human IgG1, kappa, V domains shown, CDR-shuffled IgG) VH: EVQLVQSGAEVKKPGASVKVSCKASGYTFRGYAMHWVRQAPGQGLEWMGWIDPRTGLTKFPQKFQGRVTMTRDTSITTAYMDLSRLRSDDTAVYYCARESGDDAFDIWGQGTMVTVSS VL: DIVMTQSPSSLSASVGDRVTITCRASQKISSYLNWYQQKPGKAPKLLIYAASSLQYGVPSRFSGSGSGTDFTLTISSLQPEDFATYYCQQSLELGFGGGTKVEIKR	–	–	0.037
Abcs25 (antibody, human IgG1, kappa, V domains shown, chain-shuffled IgG) VH: EVQLVQSGAEVKKPGASVKVSCKASGYTFTGYYMHWVRQAPGQGLEWMGWINPKDGDTEFPQKFQGRVTMTRDTSITTAYMDLSRLRSDDTAVYYCARESGDDAFDIWGQGTMVTVSS VL: DIVMTQSPSSLSASVGDRVTITCRASQSISSYLNWYQQKPGKAPKLLIYAASSLQSGVPSRFSGSGSGTDFTLTISSLQPEDFATYYCQQSVGLSFGGGTKVEIKR	0.056	0.061	0.042
Abcs20 (antibody, human IgG1, kappa, V domains shown, chain-shuffled IgG) VH: EVQLVQSGAEVKKPGASVKVSCKASGYTFTGYYMHWVRQAPGQGLEWMGWINPKNGDTEFPQKFQGRVTMTRDTSITTAYMDLSRLRSDDTAVYYCARESGDDAFDIWGQGTMVTVSS VL: DIVMTQSPSSLSASVGDRVTITCRASQSISSYLNWYQQKPGKAPKLLIYAASSLQSGVPSRFSGSGSGTDFTLTISSLQPEDFATYYCQQSVGLSFGGGTKVEIKR	–	–	0.04
Abcs35 (antibody, human IgG1, kappa, fully human IgG1; VH of Ab96 with VL of Ab123) heavy: EVQLVQSGAEVKKPGASVKVSCKASGYTFTGYYMHWVRQAPGQGLEWMGWINPKNGDTEFPQKFQGRVTMTRDTSITTAYMDLSRLRSDDTAVYYCARESGDDAFDIWGQGTMVTVSSASTKGPSVFPLAPSSKSTSGGTAALGCLVKDYFPEPVTVSWNSGALTSGVHTFPAVLQSSGLYSLSSVVTVPSSSLGTQTYICNVNHKPSNTKVDKKVEPKSCDKTHTCPPCPAPEAAGAPSVFLFPPKPKDTLMISRTPEVTCVVVDVSHEDPEVKFNWYVDGVEVHNAKTKPREEQYNSTYRVVSVLTVLHQDWLNGKEYKCKVSNKALPAPIEKTISKAKGQPREPQVYTLPPSREEMTKNQVSLTCLVKGFYPSDIAVEWESNGQPENNYKTTPPVLDSDGSFFLYSKLTVDKSRWQQGNVFSCSVMHEALHNHYTQKSLSLSPGK light: DIVMTQSPSSLSASVGDRVTITCRASQSISSYLNWYQQKPGKAPKLLIYAASSLQSGVPSRFSGSGSGTDFTLTISSLQPEDFATYYCQQSVGLFFGGGTKVEIKRTVAAPSVFIFPPSDEQLKSGTASVVCLLNNFYPREAKVQWKVDNALQSGNSQESVTEQDSKDSTYSLSSTLTLSKADYEKHKVYACEVTHQGLSSPVTKSFNRGEC	0.055	0.074	0.041
Abcs40 (antibody, human IgG1, kappa, V domains shown, chain-shuffled IgG) VH: EVQLVQSGAEVKKPGASVKVSCKASGYTFTGYYMHWVRQAPGQGLEWMGWINPKDGDTEFPQKFQGRVTMTRDTSITTAYMDLSRLRSDDTAVYYCARESGDDAFDIWGQGTMVTVSS VL: DIVMTQSPSSLSASVGDRVTITCRASQSISSYLNWYQQKPGKAPKLLIYAASSLQSGVPSRFSGSGSGTDFTLTISSLQPEDFATYYCQQSVGLFFGGGTKVEIKR	–	–	0.048
CTIR2-15 (antibody, human IgG1, kappa, V domains shown, CDR-shuffled IgG) VH: EVQLVQSGAEVKKPGASVKVSCKASGYTFRGYAMHWVRQAPGQGLEWMGWIDPRTGLTKFPQKFQGRVTMTRDTSITTAYMDLSRLRSDDTAVYYCARESGDDAFDIWGQGTMVTVSS VL: DIVMTQSPSSLSASVGDRVTITCRASQKISSYLNWYQQKPGKAPKLLIYAASSLQYGVPSRFSGSGSGTDFTLTISSLQPEDFATYYCQQSVGLSFGGGTKVEIKR	–	–	0.05
